The target of test [1] is T1, human δ opioid receptor (human, UniProt P41143 1-372). Nature of the test: cell-based or functional assay.
T1 sequence (P41143 whole entry, stated change not applied): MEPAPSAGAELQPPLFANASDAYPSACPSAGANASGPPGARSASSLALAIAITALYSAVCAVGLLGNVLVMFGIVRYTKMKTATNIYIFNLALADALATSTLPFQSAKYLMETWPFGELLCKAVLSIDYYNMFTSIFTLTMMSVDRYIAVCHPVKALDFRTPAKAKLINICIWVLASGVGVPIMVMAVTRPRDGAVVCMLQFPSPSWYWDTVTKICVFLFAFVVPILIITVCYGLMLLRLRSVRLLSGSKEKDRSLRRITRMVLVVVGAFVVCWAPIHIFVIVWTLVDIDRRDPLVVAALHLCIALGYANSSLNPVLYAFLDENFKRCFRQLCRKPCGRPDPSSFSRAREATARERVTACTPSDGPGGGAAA
Test [2] deals with T2, rat µ opioid receptor (rat, UniProt P33535 1-398). Nature of the test: cell-based or functional assay.
T2 sequence (P33535 whole entry): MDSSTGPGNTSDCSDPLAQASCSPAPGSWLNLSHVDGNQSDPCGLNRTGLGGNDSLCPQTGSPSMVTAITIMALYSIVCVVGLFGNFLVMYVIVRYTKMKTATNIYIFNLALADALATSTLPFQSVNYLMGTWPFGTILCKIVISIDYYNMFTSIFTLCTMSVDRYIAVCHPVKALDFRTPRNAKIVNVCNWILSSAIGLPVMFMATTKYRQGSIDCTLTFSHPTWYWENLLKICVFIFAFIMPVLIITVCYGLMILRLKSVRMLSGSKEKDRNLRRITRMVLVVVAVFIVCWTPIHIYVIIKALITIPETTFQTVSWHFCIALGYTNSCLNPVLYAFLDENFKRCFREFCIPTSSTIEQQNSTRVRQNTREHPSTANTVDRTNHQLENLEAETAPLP
Test [3] has as its target T2, rat µ opioid receptor. Kind of test: competition vs [3H]DAMGO, rMOR cell membranes.
Test [4] has as its target T1, human δ opioid receptor. Kind of test: competition vs [3H]DPDPE, hDOR cell membranes.
Test [5] deals with T3, human NK1 receptor (human, UniProt P25103 1-407).
T3 construct: whole, on cells; membrane preparations of the transfected cells were used; also called hNK1; human neurokinin-1 receptor
Nature of the test: competition vs [3H]Substance P, hNK1 CHO cell membranes.
T3 sequence (P25103 whole entry): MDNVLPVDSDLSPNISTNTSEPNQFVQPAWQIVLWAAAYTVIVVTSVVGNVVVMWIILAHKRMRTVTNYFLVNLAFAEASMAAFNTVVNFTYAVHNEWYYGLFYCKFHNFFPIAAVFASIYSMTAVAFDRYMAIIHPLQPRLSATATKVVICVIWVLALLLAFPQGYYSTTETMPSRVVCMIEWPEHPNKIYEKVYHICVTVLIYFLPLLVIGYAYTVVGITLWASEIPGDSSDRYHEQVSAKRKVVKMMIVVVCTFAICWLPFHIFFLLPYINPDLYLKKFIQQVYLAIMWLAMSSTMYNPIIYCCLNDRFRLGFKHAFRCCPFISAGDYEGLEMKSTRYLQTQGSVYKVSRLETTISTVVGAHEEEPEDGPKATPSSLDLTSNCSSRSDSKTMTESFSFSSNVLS

Test [6] has as its target T4, rat NK1 receptor (rat, UniProt P14600 1-407).
T4 construct: whole, on cells; membrane preparations of the transfected cells were used; also called rNK1; rNK-1
Kind of test: competition vs [3H]Substance P, rNK1 CHO cell membranes.
T4 sequence (P14600 whole entry): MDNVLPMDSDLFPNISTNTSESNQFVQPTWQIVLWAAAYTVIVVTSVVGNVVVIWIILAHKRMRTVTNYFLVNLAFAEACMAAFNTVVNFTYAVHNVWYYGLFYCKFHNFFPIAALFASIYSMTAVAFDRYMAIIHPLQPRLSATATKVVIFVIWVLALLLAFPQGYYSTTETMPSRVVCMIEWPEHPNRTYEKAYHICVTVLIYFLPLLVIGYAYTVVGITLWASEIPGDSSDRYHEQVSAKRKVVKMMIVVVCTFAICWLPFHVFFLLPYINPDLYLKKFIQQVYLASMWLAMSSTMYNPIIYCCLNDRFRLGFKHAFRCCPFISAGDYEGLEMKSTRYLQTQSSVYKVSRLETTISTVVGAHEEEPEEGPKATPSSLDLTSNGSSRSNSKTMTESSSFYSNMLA

The target in test [7] is T5, human δ opioid receptor (human, UniProt P41143 1-372). Nature of the test: cell-based or functional assay. The source holds these as a separate data set.
T5 sequence (P41143 whole entry, stated change not applied): as the sequence (P41143 whole entry, stated change not applied) above
Test [8] addresses T6, rat µ opioid receptor (rat, UniProt P33535 1-398). Kind of test: cell-based or functional assay. This is another data set of the same source.
T6 sequence (P33535 whole entry): as the sequence (P33535 whole entry) above
Test [9] has as its target µ opioid receptor of the guinea pig isolated ileum (guinea pig). Nature of the test: cell-based or functional assay.
Test [10] has as its target guinea pig NK1 receptor (guinea pig, UniProt P30547 1-407). Nature of the test: cell-based or functional assay.
Test [11] deals with T6, rat µ opioid receptor. Nature of the test: competition vs [3H]DAMGO, membranes of rMOR-transfected HN9.10 cells.
The target of test [12] is T5, human δ opioid receptor. Kind of test: competition vs [3H]DPDPE, membranes of hDOR-transfected HN9.10 cells.
Test [13] addresses T7, rat NK1 receptor (rat, UniProt P14600 1-407).
T7 construct: whole, on cells; Assayed as membrane preparations of transfected CHO cells; also called rNK1; rNK-1
Kind of test: competition vs [3H]substance P, membranes of rNK1-transfected CHO cells.
T7 sequence (P14600 whole entry): as the sequence (P14600 whole entry) above

Test [14] addresses T8, human NK1 receptor (human, UniProt P25103 1-407).
T8 construct: whole, on cells; Assayed as membrane preparations of transfected CHO cells; also called hNK1; human neurokinin-1 receptor
Kind of test: competition vs [3H]substance P, membranes of hNK1-transfected CHO cells.
T8 sequence (P25103 whole entry): as the sequence (P25103 whole entry) above

Test [15] has as its target T7, rat NK1 receptor. Nature of the test: competition vs [3H]substance P, membranes of rNK1-transfected CHO cells. The source holds these as a separate data set.
Test [16] concerns the target T3, human NK1 receptor. Nature of the test: competition vs [3H]Substance P, hNK1 CHO cell membranes. The source holds these as a separate data set.

Eleven molecules from patent US8026218 (UNIVERSITY OF ARIZONA, dated 2011) can be followed below.

One may read the Ki as a dissociation constant, usually derived from enzyme kinetics or from competition with a known ligand. A higher Ki goes with a looser hold on the target. One may read the IC50 as the concentration needed to halve the response being measured. Read a low IC50 as greater potency.

Read-outs that look alike come from different tables or passages of the source. Square brackets hold non-standard residues; d marks the D form. Ends that are not written are not given here. * marks the point of attachment. NH(3,5-(CF3)2-benzyl) = FC(F)(F)c1cc(CN*)cc(C(F)(F)F)c1; OBzl(3,5-(CF3)2) = FC(F)(F)c1cc(CO*)cc(C(F)(F)F)c1; Met(O) = CS(=O)CC[C@H](N)C(=O)O

guinea pig NK1 receptor, sequence (P30547 whole entry): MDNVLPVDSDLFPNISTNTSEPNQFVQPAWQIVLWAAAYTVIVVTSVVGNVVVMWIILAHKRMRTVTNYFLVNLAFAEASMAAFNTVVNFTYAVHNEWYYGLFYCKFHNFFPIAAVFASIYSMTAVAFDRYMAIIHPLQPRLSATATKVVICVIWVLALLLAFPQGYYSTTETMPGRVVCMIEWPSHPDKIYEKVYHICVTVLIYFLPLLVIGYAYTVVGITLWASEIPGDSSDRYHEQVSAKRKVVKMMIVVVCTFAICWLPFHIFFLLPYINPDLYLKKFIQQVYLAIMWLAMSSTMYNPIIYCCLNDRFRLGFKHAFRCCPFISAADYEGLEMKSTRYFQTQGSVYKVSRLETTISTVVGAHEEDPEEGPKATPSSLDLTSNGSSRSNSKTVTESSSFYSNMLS

Y[dA]GFLW-{O‑Bzl(CF3)2} (also called NP37) [Tyr-DAla-Gly-Phe-Leu-Trp-O-Bzl(CF3)2]: the “GTP EMax” value in test [1] was 60; in [2] it was 54. Besides, the Ki was 23.3 nM in [3], 2.9 nM in test [4], 0.09 nM in [5] and 0.29 nM in [6].

Turning to Y[dA]GF[dA]W-{O‑Bzl(CF3)2} (also called NP40) [Tyr-DAla-Gly-Phe-D-Ala-Trp-O-Bzl(CF3)2], the “GTP EMax” value came to 89 in test [1] and 19 in test [2]. Besides, the Ki in test [3] was 2.8 nM; in test [4], 3.9 nM; in [5], 0.011 nM; in test [6], 2.4 nM.

Y[dA]GFPW-{O‑Bzl(CF3)2} (also called NP39) [Tyr-DAla-Gly-Phe-Pro-Trp-O-Bzl(CF3)2]: the entries for the “GTP EMax” value in [1] and in test [2] were 56 and 47, respectively. In addition, the Ki in test [3] is 14.8 nM; in [5] it was 0.1 nM; in test [6], 1.6 nM.

Regarding H-Y[dA]GFLPLW-{OBzl(3,5-(CF3)2)} (also: TFA salt, TFA salt; also called TY004) [H-Tyr-D-Ala-Gly-Phe-Leu-Pro-Leu-Trp-O-3,5-Bzl(CF3)2], in test [7], the “[35S]GTP-γ-S binding EC50” value turned out to be 9.6 nM, the “[35S]GTP-γ-S binding Emax” value was 44% and the “[35S]GTP-γ-S binding LogEC50” value was -8.09. The “[35S]GTP-γ-S binding Emax” value in [8] came to 46%. Besides, the “GPI (µ) opioid agonist IC50” value in test [9] was found to be 341 nM. Also, the “Substance P GPI antagonist Ke” value in test [10] amounted to 19.4 nM. The Ki in test [11] stood at 23.3 nM. Moreover, in test [12], the Ki is 5 nM and the LogIC50 was -7.97. Also, in [13], the IC50 is 20.9 nM and the LogIC50 was -7.7.

Take H-Y[dA]GFPLW-{OBzl(3,5-(CF3)2)} (also: TFA salt, TFA salt; also called TY001) [H-Tyr-DAla-Gly-Phe-Pro-Leu-Trp-O-3,5-Bzl(CF3)2]: the Ki in test [14] was found to be 0.0023 nM; in test [15], 1.6 nM. Moreover, the figures for the LogIC50 in test [14] and in test [15] were -11.3 and -8.3, respectively.

The molecule H-Y[dA]GFPLW-{NH(3,5-(CF3)2-benzyl)} (also: TFA salt, TFA salt; also called TY012) [H-Tyr-D-Ala-Gly-Phe-Pro-Leu-Trp-NH-3,5-Bzl(CF3)2] returned a Ki in [14] of 0.61 nM. In test [15], this molecule registered a Ki of 33 nM and a LogIC50 of -7.

As to H-Y[dA]GF[Met(O)]PLW-{OBzl(3,5-(CF3)2)} (also: TFA salt, TFA salt; also called TY023) [H-Tyr-D-Ala-Gly-Phe-Met(O)-Pro-Leu-Trp-O-3,5-Bzl(CF3)2], in [7], the “[35S]GTP-γ-S binding Emax” value was found to be 53% and the “[35S]GTP-γ-S binding LogEC50” value is -8.73. Moreover, in test [9], the “GPI (µ) opioid agonist IC50” value is 154 nM. Moreover, the “Substance P GPI antagonist Ke” value in test [10] came to 7.8 nM. Besides, in [12], the Ki came out at 4.8 nM and the LogIC50 is -7.92. In test [13], this molecule gave a half-maximal inhibitory concentration (IC50) of 54.5 nM and a LogIC50 of -7.27.

Consider H-Y[dA]GFPLW-{NMe‑Bn(CF3)2} (also: TFA salt, TFA salt; also called TY013) [H-Tyr-D-Ala-Gly-Phe-Pro-Leu-Trp-NMe-3,5-Bzl(CF3)2], for which the LogIC50 in [14] was -8.5. The Ki in test [15] amounted to 6.1 nM.

B1: Tyr-DAla-Gly-Phe-γ-Abu-Trp-O-Bzl(CF3)2 (peptide)
peptide: Y[dA]GFXW-{O‑Bzl(CF3)2}
modifications: not fully specified (residue 5); printed as Tyr-DAla-Gly-Phe-γ-Abu-Trp-O-Bzl(CF3)2
notes: also called NP34
For the molecule B1, the “GTP EMax” value in test [1] was 40; in test [2], 27. Also, the Ki stood at 2.2 nM in [3], 25.4 nM in [4], 0.001 nM in test [5] and 7.4 nM in test [6].

B2: DmtDAlaGlyPheNleProLeuTrpNHBn(CF3)2 (peptide)
peptide: YAGFXPLW
modifications: Dmt at 1 (written Y); D-Ala at 2; Nle at 5 (written X); C-terminal NH-3,5-Bzl(CF3)2 amide
notes: also called TY050
B2: the affinity in test [16], expressed as Ki, was 0.075 nM.

B3: H-Tyr-D-Ala-Gly-Phe-Nle-Pro-Leu-Trp-O-3,5-Bzl(CF3)2 (peptide)
peptide: YAGFXPLW
modifications: D-Ala at 2; Nle (norleucine, written X) at 5; C-terminal 3,5-bis(trifluoromethyl)benzyl ester
notes: TFA salt; also called TY018
Regarding B3, in [7], the “[35S]GTP-γ-S binding EC50” value came to 4 nM, the “[35S]GTP-γ-S binding Emax” value was found to be 129% and the “[35S]GTP-γ-S binding LogEC50” value was -8.4. The “GPI (µ) opioid agonist IC50” value in test [9] came out at 372 nM. The “Substance P GPI antagonist Ke” value in test [10] amounted to 7.9 nM. In test [12], this molecule showed a Ki of 1.8 nM and a LogIC50 of -8.42.
